Reference: PMC8629192 (bioRxiv, 2021)

Target: SARS-CoV-2 spike RBD-Fc recombinant protein (used for ELISA) (SARS-CoV-2, UniProt P0DTC2)
Experiment: ELISA

B1: LRRC15-His (natural protein)
chain: YHGCPSECTCSRASQVECTGARIVAVPTPLPWNAMSLQILNTHITELNESPFLNISALIALRIEKNELSRITPGAFRNLGSLRYLSLANNKLQVLPIGLFQGLDSLESLLLSSNQLLQIQPAHFSQCSNLKELQLHGNHLEYIPDGAFDHLVGLTKLNLGKNSLTHISPRVFQHLGNLQVLRLYENRLTDIPMGTFDGLVNLQELALQQNQIGLLSPGLFHNNHNLQRLYLSNNHISQLPPSVFMQLPQLNRLTLFGNSLKELSPGIFGPMPNLRELWLYDNHISSLPDNVFSNLRQLQVLILSRNQISFISPGAFNGLTELRELSLHTNALQDLDGNVFRMLANLQNISLQNNRLRQLPGNIFANVNGLMAIQLQNNQLENLPLGIFDHLGKLCELRLYDNPWRCDSDILPLRNWLLLNQPRLGTDTVPVCFSPANVRGQSLIIINVNVAVPSVHVPEVPSYPETPWYPDTPSYPDTTSVSSTTELTSPVEDYTDLTTIQVTDDRSVWGMTQAQSG
**Q.** Does B1 bind?
**A.** binds
